How the values were obtained:
D3 domain deficient uPAR = target: T1, D3 domain deficient uPAR (Homo sapiens, UniProt Q03405, DEL192-274); experiment: Yeast two hybrid with D3 domain deficient uPAR; type: binding
T1 construct: expressed in transfected cells; host or cells: yeast Y2HGold
Description: […]

lung cancer cells A549 = experiment: CCK8 cell viability detection, A549; type: cell-based, human; details: CCK8, 24 h treatment; read-out: IC50, inhibition of A549 cells
Procedure: CCK8 cell viability detection: cell suspension was seeded in 96-well plates at a concentration of 5×10^4 cells/ml (100 μL/well). The plates were placed in the incubator for pre-culture (at 37° C., 5% CO2), and control and protein agents were added to each well 24 h after seeding. The plates were then placed in the incubator for 24 h, followed by addition of 10 μL CCK8 solution into each well and incubation of the plates in the incubator for 0.5-2 h before the absorbance measurement at 450 nm using a microplate reader.
Analysis of effect of GhJAZ1 protein on the cell cycle and apoptosis of tumor cells

c-Myc = c-Myc (Homo sapiens, UniProt P01106); experiment: GST Pull down experiment with c-Myc; type: binding; design: with the full length of c-Myc and NMYC, respectively; expressed in transfected cells; host or cells: yeast Y2HGold; details: GST-c-Myc and His-GhJAZ1 fusion proteins
Sequence of c-Myc (P01106 whole entry, the tested form may be a part): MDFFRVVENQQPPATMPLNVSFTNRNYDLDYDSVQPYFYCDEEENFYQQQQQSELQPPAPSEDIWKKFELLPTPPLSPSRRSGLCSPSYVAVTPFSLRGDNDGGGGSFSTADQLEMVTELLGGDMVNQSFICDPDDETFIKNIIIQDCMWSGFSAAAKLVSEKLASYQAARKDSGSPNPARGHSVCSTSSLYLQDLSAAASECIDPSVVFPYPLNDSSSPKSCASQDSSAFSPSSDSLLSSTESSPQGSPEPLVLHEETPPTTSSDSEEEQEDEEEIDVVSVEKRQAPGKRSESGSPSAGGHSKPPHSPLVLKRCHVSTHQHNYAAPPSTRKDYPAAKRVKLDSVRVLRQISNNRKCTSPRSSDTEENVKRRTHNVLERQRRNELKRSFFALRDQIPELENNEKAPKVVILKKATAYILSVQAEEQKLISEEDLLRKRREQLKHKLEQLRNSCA
Description: Simultaneously, the interaction was validated by GST Pull down experiment. Firstly, pET-30a-GhJAZ1 (the DNA sequence set forth in SEQ ID No. 39 was inserted into pET-30a (+) vector (YouBio, Cat. No.: VT1212) between NdeI and HindIII) and pGEX-4T-1-c-Myc vectors (the CDS sequence of c-Myc (NCBI accession number: NM_002467.6) was inserted into pGEX-4T-1 vector (YouBio, Cat. No.: VT1253) between BamHI and EcoRI) was constructed and transformed into Escherichia coli BL21, which was placed on ice for 30 min, followed by heat shock at 42° C. for 60 s, and then placed on ice for 2 min, and then LB medium was added for cultivation at 37° C. and 200 rpm for 1 h, which was plated onto LB plates containing corresponding antibiotics for cultivation at 37° C. After colonies grown out, monoclonal clones were picked and shaking for incubation and expanded until the medium began to turn slightly white, and then different concentrations of IPTG were added for induction and cultured overnight under different temperatures setting. Subsequently, centrifugation at 5,000 rpm, 4° C. was carried out for 10 min, with addition of an equal volume of PBS (supplemented with PMSF and DTT) for resuspending. […] The supernatant was transferred into a protein purification column, and washed and eluted following incubation, and then proteins were detected and collected dropwise using protein pre-staining solution. […]

T1 sequence (Q03405 with tags, fused parts or gaps DEL192-274): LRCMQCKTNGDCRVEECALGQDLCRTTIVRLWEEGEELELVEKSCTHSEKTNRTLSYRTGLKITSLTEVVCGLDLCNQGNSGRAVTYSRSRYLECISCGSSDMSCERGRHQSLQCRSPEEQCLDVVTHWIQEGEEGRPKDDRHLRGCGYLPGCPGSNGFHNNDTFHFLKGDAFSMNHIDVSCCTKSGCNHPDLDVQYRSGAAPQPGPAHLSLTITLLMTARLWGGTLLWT

B1: GhJAZ1: cotton JAZ1 protein, gene number Gh_A05G0260, sequence SEQ ID No. 4; prokaryotically expressed with His tag, about 30 KD (protein)
chain: MSSCSESTAMKPARSPEKPSFAQTCNLLSQYLKEKGSFGDLSLGMTCNVEANGTPVVPPPTMNLFPLNDKSDDVCGRNGGNPKNLTSMDLFPQQAGLASKDDSPNKLEPQTAPMTIFYGGQVIVFNDFPANKAKEIMLLASNSSSQSNNSFNPIPFTSSIARSPIESSIGVPPTSKPVHPAQRAVPGDLPIARRASLHRFLEKRKDRITAKAPYQINNSAAAPSLSGDNKSWLGLAAQSP
modifications: His tag
notes: prokaryotically expressed with His tag, about 30 KD
D3 domain deficient uPAR
  interaction with D3 domain deficient uPAR: significantly weakened to none
Lung cancer cells A549
  IC50: 697 nM
c-Myc
  interaction with c-Myc: interacted
